This assay addresses Lumi4-Tb-SNAP-FLT3 on HEK293 cells (UniProt P36888 27-993, Lumi4-Tb on the SNAP tag). Nature of the assay: FRET.

Lumi4-Tb-SNAP-FLT3 on HEK293 cells, sequence (P36888 27-993): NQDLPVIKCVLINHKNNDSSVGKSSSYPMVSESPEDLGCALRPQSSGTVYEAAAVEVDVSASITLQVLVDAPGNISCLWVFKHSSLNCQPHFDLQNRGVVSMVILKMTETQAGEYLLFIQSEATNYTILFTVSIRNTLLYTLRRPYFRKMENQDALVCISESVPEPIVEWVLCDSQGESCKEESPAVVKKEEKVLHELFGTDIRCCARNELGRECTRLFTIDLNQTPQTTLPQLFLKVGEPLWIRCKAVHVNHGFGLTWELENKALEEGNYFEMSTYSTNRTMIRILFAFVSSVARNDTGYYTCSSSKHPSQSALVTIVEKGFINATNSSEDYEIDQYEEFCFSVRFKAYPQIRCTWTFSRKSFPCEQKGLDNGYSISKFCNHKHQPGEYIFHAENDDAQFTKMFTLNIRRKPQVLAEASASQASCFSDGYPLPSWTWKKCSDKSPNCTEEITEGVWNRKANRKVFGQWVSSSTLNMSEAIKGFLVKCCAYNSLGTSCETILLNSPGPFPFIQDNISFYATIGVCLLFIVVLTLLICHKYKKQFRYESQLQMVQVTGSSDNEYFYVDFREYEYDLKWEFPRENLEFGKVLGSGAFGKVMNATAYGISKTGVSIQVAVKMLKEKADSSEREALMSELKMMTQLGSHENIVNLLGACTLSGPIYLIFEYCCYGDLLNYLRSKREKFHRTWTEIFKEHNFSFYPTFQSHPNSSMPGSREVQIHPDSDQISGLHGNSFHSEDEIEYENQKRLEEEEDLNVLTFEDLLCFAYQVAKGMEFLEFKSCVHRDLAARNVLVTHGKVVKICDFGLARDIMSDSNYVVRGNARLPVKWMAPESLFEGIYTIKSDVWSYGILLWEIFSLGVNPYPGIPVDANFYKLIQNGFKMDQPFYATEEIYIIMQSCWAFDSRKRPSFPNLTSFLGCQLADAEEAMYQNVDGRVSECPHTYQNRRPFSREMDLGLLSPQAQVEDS

B1: human recombinant FL (rh-FLT3-L), labelled as Red-FL (ligand)
chain: TQDCSFQHSPISSDFAVKIRELSDYLLQDYPVTVASNLQDEELCGGLWRLVLAQRWMERLKTVAGSKMQGLLERVNTEIHFVTKCAFQPPPSCLRFVQTNISRLLQETSEQLVALKPWITRQNFSRCLELQCQPDSSTLPPPWSPRPLEATAPTAPQPPLLLLLLLPVGLLLLAAAWCLHWQRTRRRTPRPGEQVPPVPSPQDLLLVEH
modifications: red fluorophore (Red-FL), position not stated
Regarding B1, the IC50 (usually the midpoint of a concentration-inhibition curve) was determined as 0.57 nM.
